According to article PMC2113082 (The Journal of Cell Biology, 1984):

Target: von Willebrand factor (human, UniProt P04275 764-2813)
Assay: ELISA

von Willebrand factor, sequence (P04275 764-2813): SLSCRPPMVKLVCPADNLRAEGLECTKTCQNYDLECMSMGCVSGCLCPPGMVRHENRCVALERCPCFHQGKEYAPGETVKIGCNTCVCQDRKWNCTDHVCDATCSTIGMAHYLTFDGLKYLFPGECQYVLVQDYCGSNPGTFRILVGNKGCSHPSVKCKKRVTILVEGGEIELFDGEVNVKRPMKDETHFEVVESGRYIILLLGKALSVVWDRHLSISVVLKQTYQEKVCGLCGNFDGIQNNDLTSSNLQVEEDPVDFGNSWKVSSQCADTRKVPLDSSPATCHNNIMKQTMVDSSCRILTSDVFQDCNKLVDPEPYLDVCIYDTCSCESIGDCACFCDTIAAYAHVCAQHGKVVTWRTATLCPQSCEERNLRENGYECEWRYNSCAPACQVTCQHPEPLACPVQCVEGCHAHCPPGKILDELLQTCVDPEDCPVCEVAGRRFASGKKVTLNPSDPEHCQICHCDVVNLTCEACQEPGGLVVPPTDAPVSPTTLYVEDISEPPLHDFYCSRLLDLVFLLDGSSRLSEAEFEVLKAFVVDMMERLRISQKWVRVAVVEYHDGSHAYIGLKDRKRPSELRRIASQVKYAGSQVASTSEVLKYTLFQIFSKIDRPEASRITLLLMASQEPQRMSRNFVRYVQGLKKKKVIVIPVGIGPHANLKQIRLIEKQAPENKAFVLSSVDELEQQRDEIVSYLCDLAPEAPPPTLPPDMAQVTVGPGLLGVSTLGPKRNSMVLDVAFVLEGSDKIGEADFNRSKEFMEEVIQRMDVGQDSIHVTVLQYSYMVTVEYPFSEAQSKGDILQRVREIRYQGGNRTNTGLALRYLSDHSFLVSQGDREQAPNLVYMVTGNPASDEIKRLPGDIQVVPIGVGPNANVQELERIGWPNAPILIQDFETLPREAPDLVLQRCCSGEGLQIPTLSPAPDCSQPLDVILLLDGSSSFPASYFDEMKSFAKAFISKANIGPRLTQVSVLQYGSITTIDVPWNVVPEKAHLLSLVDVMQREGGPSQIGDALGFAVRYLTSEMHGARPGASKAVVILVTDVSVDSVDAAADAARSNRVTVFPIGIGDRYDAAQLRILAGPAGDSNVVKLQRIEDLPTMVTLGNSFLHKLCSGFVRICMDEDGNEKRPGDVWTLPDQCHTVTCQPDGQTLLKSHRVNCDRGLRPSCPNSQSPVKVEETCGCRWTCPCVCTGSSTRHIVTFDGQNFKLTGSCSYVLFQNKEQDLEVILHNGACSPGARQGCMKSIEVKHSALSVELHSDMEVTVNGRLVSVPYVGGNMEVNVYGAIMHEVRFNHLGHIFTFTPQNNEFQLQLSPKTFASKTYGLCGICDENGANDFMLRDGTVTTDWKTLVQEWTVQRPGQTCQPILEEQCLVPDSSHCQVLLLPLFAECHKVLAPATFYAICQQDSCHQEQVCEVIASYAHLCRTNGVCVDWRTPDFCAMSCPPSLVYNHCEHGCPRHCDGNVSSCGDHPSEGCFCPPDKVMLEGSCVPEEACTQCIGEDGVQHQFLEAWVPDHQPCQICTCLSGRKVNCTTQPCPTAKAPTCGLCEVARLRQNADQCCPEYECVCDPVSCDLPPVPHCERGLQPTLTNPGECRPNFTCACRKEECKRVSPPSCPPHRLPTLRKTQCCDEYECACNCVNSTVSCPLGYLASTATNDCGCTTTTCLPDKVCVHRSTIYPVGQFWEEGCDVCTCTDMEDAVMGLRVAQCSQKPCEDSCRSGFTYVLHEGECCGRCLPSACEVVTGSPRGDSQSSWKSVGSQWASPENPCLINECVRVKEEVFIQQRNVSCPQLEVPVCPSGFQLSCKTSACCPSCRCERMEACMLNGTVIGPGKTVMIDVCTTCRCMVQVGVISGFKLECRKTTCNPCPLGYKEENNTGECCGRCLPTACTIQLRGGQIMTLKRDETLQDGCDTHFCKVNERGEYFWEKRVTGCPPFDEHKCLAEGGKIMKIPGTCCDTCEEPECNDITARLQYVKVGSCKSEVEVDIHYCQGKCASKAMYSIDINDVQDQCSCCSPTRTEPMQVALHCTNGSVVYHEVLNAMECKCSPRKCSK

- binding result: binds
B1: Phosphorylase b (enzyme, rabbit, UniProt P00489 1-843, looked up)
chain: MSRPLSDQEKRKQISVRGLAGVENVTELKKNFNRHLHFTLVKDRNVATPRDYYFALAHTVRDHLVGRWIRTQQHYYEKDPKRIYYLSLEFYMGRTLQNTMVNLALENACDEATYQLGLDMEELEEIEEDAGLGNGGLGRLAACFLDSMATLGLAAYGYGIRYEFGIFNQKICGGWQMEEADDWLRYGNPWEKARPEFTLPVHFYGRVEHTSQGAKWVDTQVVLAMPYDTPVPGYRNNVVNTMRLWSAKAPNDFNLKDFNVGGYIQAVLDRNLAENISRVLYPNDNFFEGKELRLKQEYFVVAATLQDIIRRFKSSKFGCRDPVRTNFDAFPDKVAIQLNDTHPSLAIPELMRVLVDLERLDWDKAWEVTVKTCAYTNHTVLPEALERWPVHLLETLLPRHLQIIYEINQRFLNRVAAAFPGDVDRLRRMSLVEEGAVKRINMAHLCIAGSHAVNGVARIHSEILKKTIFKDFYELEPHKFQNKTNGITPRRWLVLCNPGLAEIIAERIGEEYISDLDQLRKLLSYVDDEAFIRDVAKVKQENKLKFAAYLEREYKVHINPNSLFDVQVKRIHEYKRQLLNCLHVITLYNRIKKEPNKFVVPRTVMIGGKAAPGYHMAKMIIKLITAIGDVVNHDPVVGDRLRVIFLENYRVSLAEKVIPAADLSEQISTAGTEASGTGNMKFMLNGALTIGTMDGANVEMAEEAGEENFFIFGMRVEDVDRLDQRGYNAQEYYDRIPELRQIIEQLSSGFFSPKQPDLFKDIVNMLMHHDRFKVFADYEEYVKCQERVSALYKNPREWTRMVIRNIATSGKFSSDRTIAQYAREIWGVEPSRQRLPAPDEKIP
